Legend:
[1] = test system: SU-pcGBM2 cells; test: EdU incorporation assay, proliferation index of pHGG cells (SU-pcGBM2); assay type: cell-based, human
[2] = test system: NLGN3 mRNA in SU-pcGBM2 cells; test: qPCR of NLGN3 gene expression in SU-pcGBM2 cells; assay type: cell-based, human; settings: 50 nM recombinant NLGN3, 12 hour vs vehicle
[3] = test system: MAPK pathway (phospho-ERK1/2 T202/Y204); test: Western blot of phospho-ERK1/2 as indicator of MAPK pathway activation; assay type: cell-based, human; settings: NLGN3 50 nM vs aCSF
Experimental: A) Western blot analysis of phosphorylated ERK1/2 (Thr202/Tyr204) and total ERK1/2 in SU-pcBGM2 cells after exposure to either aCSF or NLGN3 (50 nM). […] B) Phosphorylated ERK1/2 levels were normalized to total ERK1/2 levels. […] All experiments performed in three biological replicates and analyzed by unpaired two-way Student's t-test. Data presented as mean±SEM. **P<0.01, ***P<0.001. n.s. indicates P>0.05.
Endogenous protein levels were determined using Western blot analysis. Briefly, after various treatments, 400,000 SU-pcGBM2 cells were lysed and loaded onto SDS-PAGE gels. Proteins were separated with gel electrophoresis and transferred to a PVDF membrane. Proteins were then probed for various antibodies as described in extended experimental procedures.

[4] = test system: SU-pcGBM2 cells; test: Annexin V FACS analysis of cell death; assay type: cell-based; settings: 50 nM NLGN3, 24 h vs PBS
Experimental: After 24-hr exposure to PBS or NLGN3 (50 nM), SU-pcGBM2 cells were stained with DAPI (X-axis) and Annexin V-FITC (Y-axis) to detect cell death by FACS analysis, performed in biological duplicate. Live Annexin V^−/DAPI^− cells shown in lower left quadrant of contour plots; pre-apoptotic Annexin V^+/DAPI^− cells, left upper quadrant; dead Annexin V^+/DAPI^+ cells, right upper quadrant.
SU-pcGBM2 cells were cultured in minimal growth media together with 50 nM NLGN-3 recombinant protein (dissolved in PBS) or PBS only as a vehicle control in duplicate for 24 hrs. Cells were harvested for FACS analyses of apoptosis using Annexin V-FITC Apoptosis Detection Kit II (556570, BD Biosciences) according to the manufacturer's instruction with slight modifications. DAPI was used in combination with Annexin V-FITC to stain the apoptotic cell population instead of PI. The stained cells were analyzed using a BD Fortessa FACS machine (BD Biosciences). The data were analyzed using Flowjo software (FLOWJO, LLC).

[5] = test system: Fos mRNA; test: qPCR of Fos gene expression in pHGG cells; assay type: cell-based, human; settings: 50 nM NLGN3, 1 hour vs vehicle
Experimental: (§1) A) Signaling through the PI3K pathway increases in response to NLGN3. Representative Western blot illustrating increased phosphorylation of AKT in response to various concentrations of NLGN3 ranging from 0-50 nM. p-AKT is shown in top panel; total AKT is shown in the bottom panel. B) Quantification of the increased fold change of pAKT/AKT ratio in response to NLGN3 at various doses (oneway ANOVA, F=17.99, P<001; data shown as mean±SEM; *P<0.05, **P<0.01, ***P<0.001 by Tukey's post-hoc tests to further examine pairwise comparisons). Fold change is normalized to blank media (aCSF). (C) Fos mRNA expression increases after 1 hour exposure to […] 50 nM NLGN3 (data shown as mean±SEM; **P<0.01 by unpaired two-tailed Student's t-test). D) NLGN3 mRNA expression increases after 12 hour exposure to 50 nM NLGN3 vs. vehicle in SU-[…] cells. […]
After various cell treatments (described in extended experimental procedures), RNA was extracted from 500,000 SU-pcGBM2 or SU-[…] cells using TRIzol reagent. cDNA was generated using RT-PCR, and gene expression changes were further probed using quantitative PCR.
500,000 SU-pcGBM2 cells were exposed to either aCSF, 50 nM NLGN3 (Origene Technologies, Rockville), 500 nM BKM120 (SelleckChem, Houston, Tex.), 50 nM EGF (Shenandoah, Warwick, R.I.), or a combination of the above treatments. […] Differential expression was determined using the delta CT method. […]

[6] = test system: PI3K pathway (phospho-AKT); test: Western blot of phospho-AKT as indicator of PI3K pathway activity; assay type: cell-based, human; settings: recombinant NLGN3 0-50 nM, 1 hour
Experimental: as §1, with “cells. Data shown as mean±SEM; *P<0.05 by unpaired two-tailed Student's t-test.” for “cells.”
Endogenous protein levels were determined using Western blot analysis. […]
Briefly, in FIG. 5, panel A, cells were lysed after 1-hour exposure to 0 nM, 5 nM, 10 nM, or 50 nM recombinant NLGN3 (Origene Technologies, Rockville, Md.), using RIPA buffer and protease inhibitors. […] Protein concentration in the lysate was determined using a Bradford assay. […] Proteins were visualized using Clarity ECL Western Substrate (BioRad, Hercules, Calif.) and quantified using ImageJ.

B1: NLGN3: Recombinant full-length neuroligin-3 (Origene), tested as glioma mitogen (protein, listed as Mus musculus)
chain: MWLQPSLSLSPTPTVGRSLCLTLGFLSLVLRASTQAPAPTVNTHFGKLRGARVPLPSEILGPVDQYLGVPYAAPPIGEKRFLPPEPPPSWSGIRNATHFPPVCPQNIHTAVPEVMLPVWFTANLDIVATYIQEPNEDCLYLNVYVPTEDGSGAKKQGEDLADNDGDEDEDIRDSGAKPVMVYIHGGSYMEGTGNMIDGSVLASYGNVIVITLNYRVGVLGFLSTGDQAAKGNYGLLDQIQALRWVSENIAFFGGDPRRITVFGSGIGASCVSLLTLSHHSEGLFQRAIIQSGSALSSWAVNYQPVKYTSLLADKVGCNVLDTVDMVDCLRQKSAKELVEQDIQPARYHVAFGPVIDGDVIPDDPEILMEQGEFLNYDIMLGVNQGEGLKFVEGVVDPEDGVSGTDFDYSVSNFVDNLYGYPEGKDTLRETIKFMYTDWADRDNPETRRKTLVALFTDHQWVEPSVVTADLHARYGSPTYFYAFYHHCQSLMKPAWSDAAHGDEVPYVFGVPMVGPTDLFPCNFSKNDVMLSAVVMTYWTNFAKTGDPNKPVPQDTKFIHTKANRFEEVAWSKYNPRDQLYLHIGLKPRVRDHYRATKVAFWKHLVPHLYNLHDMFHYTSTTTKVPPPDTTHSSHITRRPNGKTWSTKRPAISPAYSNENAPGSWNGDQDAGPLLVENPRDYSTELSVTIAVGASLLFLNVLAFAALYYRKDKRRQEPLRQPSPQRGTGAPELGTAPEEELAALQLGPTHHECEAGPPHDTLRLTALPDYTLTLRRSPDDIPLMTPNTITMIPNSLVGLQTLHPYNTFAAGFNSTGLPHSHSTTRV
proliferation index ([1]; pHGG cells exposed to 50 nM NLGN3, 24 h, EdU): 0.40±0.01 | effect on proliferation index, dose curve ([1]; recombinant NLGN3 0-100 nM, 24 hours): promotes proliferation, matching the mitogenic effect of active CM at low nanomolar concentrations | effect on proliferation index relative to aCSF control ([1]; recombinant candidate proteins at 100 nM for 24 hours): promote glioma cell proliferation | NLGN3 gene expression [2]: increase in glioma cell NLGN3 gene expression | phospho-ERK1/2 T202/Y204 [3]: did not reveal upregulation | cell death by Annexin V FACS analysis [4]: no change in cell death | Fos gene expression [5]: upregulation of Fos gene expression | phospho-AKT levels relative to total AKT [6]: increased phospho-AKT levels relative to total AKT in a dose-dependent manner

From patent publication US10377818B2, “Method of treating glioma” (The Board of Trustees of the Leland Stanford Junior …, priority 2015, dated 2019)
